# Target: hisPcrH (Pseudomonas aeruginosa T3S chaperone PcrH with an N-terminal polyHis tag) (P. aeruginosa PAO1) (UniProt Q9I325)
# Assay: SEC
row,Substance,stoichiometry N
1,"PopB (native, untagged P. aeruginosa T3S translocator) (from UniProt Q9I324 1-390) (natural protein)",1
2,"PopD (native, untagged P. aeruginosa T3S translocator) (from UniProt Q9I323 1-295) (natural protein)",1
